Data taken from the nanobody polyreactivity screen of Harvey et al. (2022).

Test: yeast display, Sf9 membrane polyspecificity reagent, FACS + sequencing; frameworks hold sequencing errors
Outline: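 Nanobodies came from a synthetic yeast display library in Saccharomyces cerevisiae BJ5465, induced with galactose for 36–48 hours and stained for 1 hour at 4 °C with 10% biotinylated, detergent-solubilized Sf9 membrane reagent. Cells were enriched on streptavidin microbeads and then FACS-sorted, with low and high (top ~1%) gates set on anti-HA fluorescence for expression and streptavidin fluorescence for reagent binding. Each polyreactivity label reflects the gate a clone came from. Genes were amplified by colony PCR, sequenced by MiSeq 2 × 250 and filtered by CDR length.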

| Sequence | polyreactivity (PSR sort gate) |
| --- | --- |
| QVQLVESGGGLVQAGGSHRLSCAASGLTFRKYAMGWYRQAPGKERELVATISRNGGSTYYADSVKGRFTISRDNAKNTVYLQMNSLKPEDTAVYYCAADYYTYDYAGYGDWGQGTQVTVSS | high polyreactivity |
| QVQHVESGGGLVQAGGSLRLSCAASGLTFPYYVMGWYRQAPGKERELVAAIDDGGGSTYYADSVKGRFTISRDNAKNTVYLQMNSLKPVDTAVYYCAAQVDYLAHYGYWGQGTQVTVSS | low polyreactivity |
| QVQLVESGGGLVQAGGSLRLSCAASGSIFIGNAMGWYRQAPGKERELVAVISKGGGRTYYADSVKGRFTISRDNAKNTVYLQMNSLKPEDSAVYYCNTRNPHRGDYWGQGTQVTVSS | high polyreactivity |
| QVQLVESGGGLVQAGGSLRLSCAASGRIFDRNAMGWSRQAPGKERELVAAITRSGGRTYYADSVKGRFTISRDNAKYTVYLQMNSLKPEDTAVYYCNRGYPRSVVHYNSWGQGTQVTVSS | high polyreactivity |
| HVQLVESGGGLVQAGGSLRLSCAASGSTFGQYTMGWYRQAPGKERELVATISSGGSTYYADSVKGRFTISRDNAKHTVYLQMNSLKPEDTAVYYCAARYWSIYDYWGQGTQVTVSS | low polyreactivity |
| QVQLVESGGCLVQAGGSLRLSCAASGRTFSIYAMGWYRQAPGKEWELVASINGSGGSTYYADSVKGRFTISRDIAMNTVYLQMNSLKPEDTAVYYCAARASPRFNYWGQGSQVTVSS | high polyreactivity |
| QVQLVESGGGLVQAGGSLRLSCAASGSIFNAYAMGWYRQAPGKERELVAAISKRTSYADSVKGRFTISRDNAKNTVYLQMNSLKPEDTAVYYCAKEVDEPDGYEYDYWGQGTQVTVSS | low polyreactivity |
| QVQLVESGGGLFQAGGSLRLSCAASGSTFGFYAIGWYRQAPGKERELVARITYSGGSTYYADSVKGRFTISRDNAKITVYLQLNSLIPEDNAVSYCAARSWTHYFRYDYWGQGTQVTVSS | high polyreactivity |
| QVQLVESGGGLVQAGGSLRLSCAASGSTFDYNAMGWYRQAPGKEMELVAAISRGGNTDYADSVKGRFTISRDNAKNTVYLQMNSLKPEDSAVYYCDADALLEWFDVAYFAYEYWGQGTQVTVSS | low polyreactivity |
| QVQLVESGGGLVQAGGSLRLSCAASGFTFKDNTMGWYRQAPGKEGELVAAISSRGGSTYYADSVKGRFTISRDTAKNTVYLQMNSLKPEDTAVYYCAARSHSSRSRSPGDYWGQGTQVTVSS | high polyreactivity |
| QVQLVESGGGLVQAGGSLRLTCAASGFTFARNTMGWYRQAPGKERELVAAISKNGGSTYYADSVKGRFTISRDNAKNTVYLQMNSLTPEDTAVYYCNTYPSKVGRYSVKDYEYGYWGQGTQVTVSS | high polyreactivity |
| QVQLVESGGGLVQAGGSLRLSCAASGFTFYYYPMGWYRQAPGKERELVAAISSSGGRTYYADSVKGRFTISRDNSKNTVYLQMNSLKPEDTAVYYCAADRYFRSYDYWGQGTQVTVSS | high polyreactivity |
| HVQLVESGGGLVQAGGSLRLSCAASGRIFGYNAMGWYRQAPGKEREFVATITYNDGSTYYADSVKGRFTMSRDNAKNTVYLQMNSLKPEDTAVYYCAADLIWTVYGWKYDYWGQGTHVTVSS | low polyreactivity |
| QVQLVESGGGLVQAGGRLRLSCAASGSTFGYYAMGWYRQAPGKERELVAAITFSVGGTYYADSVKGRFTISRDNAKNTVYLQMNSLKPEDTAVYYCNVDYYVPPAGVTRTGDDVYWGKGTQVTVSS | low polyreactivity |
| QVQLVESGGGLVQAGGSLRLSCAASGRIFAYYAMGWYRQAPGKERELVAVISKSGGSTNYADSVKGRFTISRDYAKNTVYLQMNSLKPEDTAVYYCAKRAYDPEMYYWGQGTQVTVSS | low polyreactivity |
| QVQLVESAGGLVQAGGSLRLSCAASGSTFLIYALGCYRHAPGKERELVAAITVSGGDTYYADSVKGRFTISRDNAKNTVYLQMNSLKPEDTAVYYCAAEGGNDYSSVDAGISYDYWGQGTKVTVSS | low polyreactivity |
| QVQLVESGGGLVQAGGSLRLSCAASGFIFIYNAMGWFRQAPGKERELVAAISRTGARTYYADSVKGRFTISRDNAKNTVYLQMNSLKPEDTAVYYCAGGVRTRTEEYDYWGQGTKVTVSS | high polyreactivity |
| QVQLVESGGGLVQAGGSLRLSCAASGRTFGRNAMGWYRQATGKERELVAPISRDGSTYYADSVKGRFTISRDNAKNTVYLQMNSLKPEDTAVYYCAADRPWYYTLTPIHGYDYWGQGTQVTVSS | low polyreactivity |
| QVQLVESGAGLVQAGVSLRLSCAASGRIFVVNAMGRYRHAPGKERELVAAISRGGSTNYADSVKGPFTISRDNAKNTVYLQMNSLKPEDTAVYYCNADGSSYWYPVPLDGGDYWGQGTLVTVSS | low polyreactivity |
| QVQLVESGGGLVQAGGSLRLSCAASGSTIDTYAMGWYRLAPGKERELVAGISWSGGSTFYADSVKGRFTFSRDNAKNTVDLHMNSLKPEDTAVYYCAKQLWVGVKYDYWGQGTQVTVSS | low polyreactivity |
| QDQLVESGGGLVQAGGSLRLSCAASGITFAYYAMGWYTQAPGKERELVAGISKSGGRTYYADSVKGRFTISRDHAKNTVYLQMNSLKPEDTAVYYCAAQDARRIVYYRYYYWGQGTQVTVSS | high polyreactivity |
| QVQLVESGGGLVQAGGSLRLICAASGGTFYDYAMGWYRQAPGKERELVAAISASGDSTYYADSVKGRFTISRDNAKNTVYLQMNSLKPEDTAVYSCAAEFTAFDGFDYWGQGTQVTVSS | low polyreactivity |
| QVQLVESGGGLVQAGGSLRLSCAASGRTFRYYTMGWYRQAPGKERELVAAINDSGDITYYADSVKGRFTISRDNAKNTVSLQMNSLKPEDTAVYYCAASAAYYGFYKSVTYDYWGQGTQVTVSS | low polyreactivity |
| QVQLVESGGGLVQAGGSLRLSCAASGSTFFPNGMGWYRQAPGKERELVAAITQDGGSTYYADSVKGRFTISRDKAKNTVYLQMNSLKPEDTAVYYCAASAGPYYEYGYWGQGTQVTVSS | low polyreactivity |
| QVQLVESRGGLVQAGGSLRLSCPASGFTNWRNDMGWYRQAPGKERELVADISTAGRTYYADSVKGRFTISRDNAKNTVYLQMNSLNPEDTAVYYCAKRSYYKDQPRYGYWGQGTQVTVSS | low polyreactivity |
| QVQLVESGGGLVQAGGSLRLSCAASGSTIPDYTMGWYRQAPGKEREFVAAISRIGGTYYADSVKGRFSISRDNAKNTVYLQMNSLKPEDTAVYSCNADPQGLSGRYHGFDYWGQGTQVTVSS | low polyreactivity |
| QVQLVESGGGLVQAGGSLRLSCAASGRIFAYNTMGWYRQAPRKERELVAVITSGGATNYADSVKGRFTISRDNAKNTVYLQMNSLKPEDTAVYYCAKRPYGRSGGSRYDYWGQGTQVTVSS | high polyreactivity |
| QVQLVESGGGLVQAGGSLRLSCAASGSIFYSYAMGWYRQAPGKERELVAAISYSSGSTYYADSVKGRFTISRDNAKNTVYLQMNSLKPEDTAVYDCAAEGNGWQVDVTEVGEYDSWGQGTQVTVSS | high polyreactivity |
| QVQLVESVGGLVQAGGSLRLSCAASGLIFPWYAMGWYRQAPGKERELVAAIRWRGGGTYYADSVKGRFTISRDNAKNTVYLQMNSLKPEDTAVYYCAARRPAKGMGYWGQGTQVTVSS | high polyreactivity |
| QVQLVESGGGLVQAGGSLRLSCAASRSIFGYNAMGWYRPAPGKEREFVAAIRWSSGSTYYADSVKGRFTISRDNAKNTVYLQMNSLKPEDTAVYYCATRQTYLYLGQGTQVTVSS | high polyreactivity |
